From patent US20200024360A1 (Janssen / Centocor, published 2020) come the findings set out here.

The target in test [1] is T1, chimpanzee PSMA, full length (Pan troglodytes, UniProt Q04609 1-750 (human entry)).
T1 construct: On transfected HEK293F cells; also called chimp PSMA; H2Q3K5_PANTR
T1 chain: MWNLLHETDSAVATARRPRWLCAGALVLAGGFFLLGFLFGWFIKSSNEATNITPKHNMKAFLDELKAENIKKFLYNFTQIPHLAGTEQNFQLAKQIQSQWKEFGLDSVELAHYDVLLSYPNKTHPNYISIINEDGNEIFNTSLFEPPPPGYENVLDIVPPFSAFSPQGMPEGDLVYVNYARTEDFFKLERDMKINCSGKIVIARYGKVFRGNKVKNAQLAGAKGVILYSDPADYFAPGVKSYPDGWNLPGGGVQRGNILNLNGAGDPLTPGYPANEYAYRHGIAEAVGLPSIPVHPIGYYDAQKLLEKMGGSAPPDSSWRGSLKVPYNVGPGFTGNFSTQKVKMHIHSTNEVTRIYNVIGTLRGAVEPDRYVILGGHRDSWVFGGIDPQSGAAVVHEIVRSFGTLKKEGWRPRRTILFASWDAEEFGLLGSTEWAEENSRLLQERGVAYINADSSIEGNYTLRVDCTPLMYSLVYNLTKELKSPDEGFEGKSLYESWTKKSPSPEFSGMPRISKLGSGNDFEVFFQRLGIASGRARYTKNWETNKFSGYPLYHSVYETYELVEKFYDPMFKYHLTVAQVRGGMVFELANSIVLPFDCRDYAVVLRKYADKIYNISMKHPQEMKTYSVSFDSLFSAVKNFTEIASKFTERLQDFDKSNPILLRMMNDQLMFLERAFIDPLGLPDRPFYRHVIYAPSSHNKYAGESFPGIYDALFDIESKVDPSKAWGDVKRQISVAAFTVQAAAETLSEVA
The test can be described thus: FACS, whole cell binding, chimp PSMA HEK. The protocol:
PSMA×CD3 bispecific antibodies were tested for binding to PSMA positive cell lines LNCAP, human PSMA-HEK, Chimpanzee-PSMA-HEK and Cynomolgous monkey PSMA-HEK. To assess the binding capabilities of the PSMA bispecific antibodies, the cell-binding assay was utilized (described previously). Briefly, PSMA expressing tumor cells are bound by bispecific antibodies at known concentrations and the bound antibody is detected by an anti-human kappa light chain PE conjugated detection reagent (Invitrogen). The Mean Fluorescents Intensity (MFI) is the measure of bound bispecific antibody. The MFI is converted to a relative EC₅₀. EC₅₀ is a commonly used dose-response curve, where the half maximal effective concentration or the EC₅₀ point is defined as the inflection point of the curve. EC₅₀ s were determined by measuring cell bound bispecific and known concentrations. […] The dose response curves were then diluted down to that of background or no bispecific binding. The inflection point of this curve reflects the EC₅₀ point. The calculated EC₅₀ is determined by taking the ug/ml amount of bispecific antibody at the EC₅₀ point and converting it to a molarity value based on the MW of the bispecific antibody. Bispecific antibodies were normalized for protein concentration and then incubated with the same number of cells expressing either human or cyno PSMA. The MFI at each concentration was collected by flow cytometry and plotted as a function of concentration. Data was transformed via log 10 and then plotted. Nonlinear regression of binding curves was done to determine EC₅₀ s. These relative values were used for ranking PSMA binding to target cells.
In general terms: A flow cytometer gives signals particle by particle.

In test [2] the target is T2, recombinant chimpanzee PSMA extracellular domain (ECD) protein (Pan troglodytes, UniProt Q04609 44-750 (human entry)).
T2 construct: also called Chimp PSMA ECD; PSMG8
T2 chain: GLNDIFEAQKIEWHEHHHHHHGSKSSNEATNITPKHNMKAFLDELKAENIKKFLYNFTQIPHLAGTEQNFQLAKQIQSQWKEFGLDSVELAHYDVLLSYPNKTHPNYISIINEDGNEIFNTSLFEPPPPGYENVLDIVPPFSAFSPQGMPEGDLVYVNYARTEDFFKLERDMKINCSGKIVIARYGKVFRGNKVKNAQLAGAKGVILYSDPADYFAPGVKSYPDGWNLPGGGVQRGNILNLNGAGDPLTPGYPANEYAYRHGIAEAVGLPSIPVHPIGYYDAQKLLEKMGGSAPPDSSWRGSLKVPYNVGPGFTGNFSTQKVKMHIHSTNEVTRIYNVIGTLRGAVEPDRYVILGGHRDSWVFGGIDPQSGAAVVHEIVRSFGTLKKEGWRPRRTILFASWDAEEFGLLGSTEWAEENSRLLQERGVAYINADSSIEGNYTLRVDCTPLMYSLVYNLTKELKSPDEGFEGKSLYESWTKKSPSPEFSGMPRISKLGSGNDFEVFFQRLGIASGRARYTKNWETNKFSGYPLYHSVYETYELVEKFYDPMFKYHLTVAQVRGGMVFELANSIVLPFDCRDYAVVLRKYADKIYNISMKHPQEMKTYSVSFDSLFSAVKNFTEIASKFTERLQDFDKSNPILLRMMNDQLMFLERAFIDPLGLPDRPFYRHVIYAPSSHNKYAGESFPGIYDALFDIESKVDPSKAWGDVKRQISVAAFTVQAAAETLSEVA
As to the kind of experiment: SPR Biacore 3000, bsAb captured by anti-Fc. The protocol:
Binding to recombinant Chimp PSMA by Biacore. The Affinity measurements using Surface Plasmon Resonance (SPR) were performed using a Biacore 3000 optical biosensor (Biacore-GE Healthcare). A biosensor surface was prepared by coupling anti-Human IgG Fc (Jackson ImmunoResearch Laboratory, cat #109-005-098) to the carboxymethylated dextran surface of a CM-5 chip (Biacore, cat # BR-1000-12) using the manufacturer instructions for amine-coupling chemistry. Approximately 16,000 RU (response units) of anti-Human IgG Fc antibodies were immobilized in each of four flow cells. The kinetic experiments were performed at 25° C. in running buffer (DPBS+0.03% P20+[…]). Dilutions of antigen (recombinant Chimp PSMA, concentration either from 1.2-300 nM or 3.7-900 nM in a 3-fold serial dilution) were prepared in running buffer. About 100 RU of PSMA×CD3 bispecific mAbs were captured on flow cell 2 to 4 of the sensor chip. Flow cell 1 was used as reference surface. Capture of PSMA×CD3 bispecific mAb was followed by a 3 or 5-minute injection (association phase) of antigen (recombinant Chimp PSMA) at 50 μl/min, followed by 15 or 20 minutes of buffer flow (dissociation phase). The chip surface was regenerated by two 18-second injections of 100 mM Phosphoric acid (H₃PO₄, Sigma, cat #7961) at 50 μl/min.
The collected data were processed using BIAevaluation software (Biacore). First, double reference subtraction of the data was performed by subtracting the curves generated by buffer injection from the reference-subtracted curves for analyte injections. Then kinetic analysis of the data was performed using a Langmuir 1:1 binding model with global fit. The result for each PSMA×CD3 bispecific mAb was reported in the format of kₐ (On-rate), kd (Off-rate) and KD (Equilibrium dissociation constant).
On the technique in general: Surface plasmon resonance follows binding to a sensor surface in real time, without labels.

B1: PS3B27 (bispecific antibody, human IgG4 S228P, kappa, lambda, F234A L235A)
heavy 1: not shown
light 1: not shown
heavy 2: EVQLVESGGGLVQPGGSLRLSCAASGFTFNTYAMNWVRQAPGKGLEWVARIRSKYNNYATYYAASVKGRFTISRDDSKNSLYLQMNSLKTEDTAVYYCARHGNFGNSYVSWFAYWGQGTLVTVSSASTKGPSVFPLAPCSRSTSESTAALGCLVKDYFPEPVTVSWNSGALTSGVHTFPAVLQSSGLYSLSSVVTVPSSSLGTKTYTCNVDHKPSNTKVDKRVESKYGPPCPPCPAPEAAGGPSVFLFPPKPKDTLMISRTPEVTCVVVDVSQEDPEVQFNWYVDGVEVHNAKTKPREEQFNSTYRVVSVLTVLHQDWLNGKEYKCKVSNKGLPSSIEKTISKAKGQPREPQVYTLPPSQEEMTKNQVSLTCLVKGFYPSDIAVEWESNGQPENNYKTTPPVLDSDGSFLLYSKLTVDKSRWQEGNVFSCSVMHEALHNHYTQKSLSLSLGK
light 2: QTVVTQEPSLTVSPGGTVTLTCRSSTGAVTTSNYANWVQQKPGQAPRGLIGGTNKRAPGTPARFSGSLLGGKAALTLSGVQPEDEAEYYCALWYSNLWVFGGGTKLTVLGQPKAAPSVTLFPPSSEELQANKATLVCLISDFYPGAVTVAWKADSSPVKAGVETTTPSKQSNNKYAASSYLSLTPEQWKSHRSYSCQVTHEGSTVEKTVAPTECS
notes: IgG4 PAA; PSMA arm chains first, then CD3 arm (F405L, R409K); also called PSMB127 x CD3B219; PS2B27
For B1, the EC50 (commonly the concentration that produces a half-maximal response) in test [1] was found to be 3.24 µg/mL. Further, in test [2], the dissociation constant Kd (commonly the free concentration of one partner at which half of the binding sites on the other are occupied at equilibrium, for simple one-to-one binding) stood at 22.4 nM; the koff – broadly, a measure of how fast the partners let go of each other – was determined as 0.002 s⁻¹; the on-rate constant (kon) (usually the second-order rate constant of association) came to 89000 M⁻¹ s⁻¹.

B2: PS3B30 (bispecific antibody, human IgG4 S228P, kappa, lambda, F234A L235A)
heavy 1: not shown
light 1: not shown
heavy 2: B1 heavy 2
light 2: B1 light 2
notes: IgG4 PAA; PSMA arm chains first, then CD3 arm (F405L, R409K); also called PSMB130 x CD3B219
Regarding B2, a half-maximal effect in test [1] (EC50) was put at 3.29 µg/mL. Also, in test [2], the dissociation constant Kd turned out to be 52.3 nM, the dissociation rate constant (koff) came out at 0.00182 s⁻¹ and the kon is 34800 M⁻¹ s⁻¹.

B3: PS3B24 (bispecific antibody, human IgG4 S228P, kappa, lambda, F234A L235A)
heavy 1: not shown
light 1: not shown
heavy 2: B1 heavy 2
light 2: B1 light 2
notes: IgG4 PAA; PSMA arm chains first, then CD3 arm (F405L, R409K); also called PSMB124 x CD3B219
Consider B3, for which the EC50 in test [1] is 1.1 µg/mL. In addition, in test [2], the Kd was 38.6 nM, the off-rate (koff) stood at 0.000907 s⁻¹ and the association rate constant (kon) is 23500 M⁻¹ s⁻¹.

B4: PS3B19 (bispecific antibody, human IgG4 S228P, kappa, lambda, F234A L235A)
heavy 1: not shown
light 1: not shown
heavy 2: B1 heavy 2
light 2: B1 light 2
notes: IgG4 PAA; PSMA arm chains first, then CD3 arm (F405L, R409K); also called PSMB119 x CD3B219
Regarding B4, the EC50 in test [1] is 5.1 µg/mL. Also, in test [2], the equilibrium dissociation constant (Kd) was determined as 66.3 nM, the koff turned out to be 0.000414 s⁻¹ and the kon worked out at 6240 M⁻¹ s⁻¹.

B5: PS3B28 (bispecific antibody, human IgG4 S228P, kappa, lambda, F234A L235A)
heavy 1: not shown
light 1: not shown
heavy 2: B1 heavy 2
light 2: B1 light 2
notes: IgG4 PAA; PSMA arm chains first, then CD3 arm (F405L, R409K); also called PSMB128 x CD3B219
Consider B5, for which, in test [1], it took 1.01 µg/mL to reach a half-maximal effect (EC50). Also, in test [2], the dissociation constant Kd was determined as 30.8 nM, the off-rate constant (koff) was found to be 0.00191 s⁻¹ and the kon was found to be 62000 M⁻¹ s⁻¹.

B6: PS3B22 (bispecific antibody, human IgG4 S228P, kappa, lambda, F234A L235A)
heavy 1: not shown
light 1: DIQMTQSPSSLSASVGDRVTITCRASQSIDRWLNWYQQKPGKAPKLLIYAASSLQSGVPSRFSGSGSGTDFTLTISSLQPEDFATYYCQQSPRYPLTFGQGTKVEIKRTVAAPSVFIFPPSDEQLKSGTASVVCLLNNFYPREAKVQWKVDNALQSGNSQESVTEQDSKDSTYSLSSTLTLSKADYEKHKVYACEVTHQGLSSPVTKSFNRGEC
heavy 2: B1 heavy 2
light 2: B1 light 2
notes: IgG4 PAA; PSMA arm chains first, then CD3 arm (F405L, R409K); also called PSMB122 x CD3B219; PSB22
B6 showed a concentration for a half-maximal effect (EC50) in test [1] of 3.02 µg/mL. Also, in test [2], the equilibrium dissociation constant (Kd) was 60.4 nM, the off-rate constant (koff) stood at 0.001 s⁻¹ and the on-rate (kon) worked out at 16600 M⁻¹ s⁻¹.

B7: PS3B23 (bispecific antibody, human IgG4 S228P, kappa, lambda, F234A L235A)
heavy 1: not shown
light 1: not shown
heavy 2: B1 heavy 2
light 2: B1 light 2
notes: IgG4 PAA; PSMA arm chains first, then CD3 arm (F405L, R409K); also called PSMB123 x CD3B219
Take B7: in test [1], the midpoint of the response, the EC50, lay at 0.88 µg/mL. In test [2], the Kd was found to be 9.1 nM, the off-rate constant (koff) is 0.00122 s⁻¹ and the association rate constant (kon) worked out at 134000 M⁻¹ s⁻¹.

B8: PS3B20 (bispecific antibody, human IgG4 S228P, kappa, lambda, F234A L235A)
heavy 1: not shown
light 1: not shown
heavy 2: B1 heavy 2
light 2: B1 light 2
notes: IgG4 PAA; PSMA arm chains first, then CD3 arm (F405L, R409K); also called PSMB120 x CD3B219
Take B8: in test [1], the EC50 was determined as 3.33 µg/mL. In test [2], the Kd stood at 59.1 nM, the koff is 0.000461 s⁻¹ and the on-rate (kon) was 7820 M⁻¹ s⁻¹.

B9: PS3B25 (bispecific antibody, human IgG4 S228P, kappa, lambda, F234A L235A)
heavy 1: not shown
light 1: not shown
heavy 2: B1 heavy 2
light 2: B1 light 2
notes: IgG4 PAA; also called PSMB87 x CD3B219
With B9, in test [2], the equilibrium dissociation constant (Kd) was determined as 16.4 nM, the koff turned out to be 0.00108 s⁻¹ and the kon was 65900 M⁻¹ s⁻¹.
